Square brackets hold non-standard residues; d marks the D form. hPhe = N[C@@H](CCc1ccccc1)C(=O)O
Tests used:
Test in all cases: cell-based or functional assay
[1] = molecular target: T1, mouse melanocortin-1 receptor (mouse, UniProt Q01727 1-315)
[2] = molecular target: mouse melanocortin-3 receptor (mouse, UniProt P33033 1-323)
[3] = molecular target: mouse melanocortin-4 receptor (mouse, UniProt P56450 1-332)
[4] = molecular target: mouse melanocortin-5 receptor (mouse, UniProt P41149 1-325)
[5] = molecular target: T1, mouse melanocortin-1 receptor; remark: listed apart in the source

mouse melanocortin-5 receptor, sequence (P41149 whole entry): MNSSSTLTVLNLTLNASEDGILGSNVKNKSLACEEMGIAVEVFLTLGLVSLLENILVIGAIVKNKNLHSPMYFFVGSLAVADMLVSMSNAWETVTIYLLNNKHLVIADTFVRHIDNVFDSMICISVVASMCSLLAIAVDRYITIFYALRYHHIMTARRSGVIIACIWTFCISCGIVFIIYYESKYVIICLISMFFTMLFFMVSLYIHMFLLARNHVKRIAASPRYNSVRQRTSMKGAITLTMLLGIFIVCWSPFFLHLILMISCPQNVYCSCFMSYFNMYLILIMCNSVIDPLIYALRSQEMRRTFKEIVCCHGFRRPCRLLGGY
mouse melanocortin-4 receptor, sequence (P56450 whole entry): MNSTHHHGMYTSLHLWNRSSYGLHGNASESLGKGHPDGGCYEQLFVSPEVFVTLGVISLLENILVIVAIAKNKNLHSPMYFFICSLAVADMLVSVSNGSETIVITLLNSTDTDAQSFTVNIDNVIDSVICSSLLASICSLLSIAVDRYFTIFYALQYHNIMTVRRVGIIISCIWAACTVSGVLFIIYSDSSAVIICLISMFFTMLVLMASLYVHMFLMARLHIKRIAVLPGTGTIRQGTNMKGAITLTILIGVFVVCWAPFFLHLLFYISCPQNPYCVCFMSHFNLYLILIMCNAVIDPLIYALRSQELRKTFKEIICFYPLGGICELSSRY
mouse melanocortin-3 receptor, sequence (P33033 whole entry): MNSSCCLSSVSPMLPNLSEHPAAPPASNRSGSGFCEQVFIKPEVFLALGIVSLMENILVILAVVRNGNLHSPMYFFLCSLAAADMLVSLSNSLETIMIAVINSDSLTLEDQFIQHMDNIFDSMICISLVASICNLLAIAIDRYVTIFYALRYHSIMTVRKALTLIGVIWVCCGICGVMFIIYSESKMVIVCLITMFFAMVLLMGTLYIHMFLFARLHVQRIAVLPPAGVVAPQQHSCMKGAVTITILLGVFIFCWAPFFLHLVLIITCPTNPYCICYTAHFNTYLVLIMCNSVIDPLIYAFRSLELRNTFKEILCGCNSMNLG
T1 sequence (Q01727 whole entry): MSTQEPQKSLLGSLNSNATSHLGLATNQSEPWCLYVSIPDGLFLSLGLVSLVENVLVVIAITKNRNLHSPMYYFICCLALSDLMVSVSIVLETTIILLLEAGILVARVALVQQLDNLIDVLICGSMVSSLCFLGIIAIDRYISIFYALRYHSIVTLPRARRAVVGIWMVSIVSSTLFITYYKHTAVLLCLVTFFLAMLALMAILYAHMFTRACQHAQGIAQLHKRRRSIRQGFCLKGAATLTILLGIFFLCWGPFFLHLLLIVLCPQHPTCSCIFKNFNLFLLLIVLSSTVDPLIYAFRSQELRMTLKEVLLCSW

Row | Binder | % maximal NDP-MSH response at 100 µM (cAMP AlphaScreen) [1] | % maximal NDP-MSH response at 100 µM (cAMP AlphaScreen) [2] | antagonist pA2 (Schild, agonist NDP-MSH) [2] | % maximal NDP-MSH response at 100 µM (cAMP AlphaScreen) [3] | antagonist pA2 (Schild, agonist NDP-MSH) [3] | agonist EC50 (cAMP AlphaScreen) [4] | agonist EC50 (cAMP AlphaScreen) [2] | agonist EC50 (cAMP AlphaScreen) [3] | inverse agonist, % change from basal cAMP at 100 µM [4] | inverse agonist apparent potency [4] | inverse agonist, % decrease from basal cAMP [4] | % maximal NDP-MSH response at 100 µM (cAMP AlphaScreen) [4] | agonist EC50 (cAMP AlphaScreen) [1] | % receptor stimulation at 100 µM (cAMP AlphaScreen) [5]
1 | cyclo(PRFFNLF[dP]) (SMILES CC(C)C[C@@H]1NC(=O)[C@H](CC(N)=O)NC(=O)[C@H](Cc2ccccc2)NC(=O)[C@H](Cc2ccccc2)NC(=O)[C@H](CCCNC(=N)N)NC(=O)[C@@H]2CCCN2C(=O)[C@H]2CCCN2C(=O)[C@H](Cc2ccccc2)NC1=O) [c[Pro-Arg-Phe-Phe-Asn-Leu-Phe-DPro]] | 80% | 25% | < 5.5 | 25% | 6.18 | > 100 µM | – | – | – | – | – | – | – | –
2 | cyclo(PRFFNDF[dP]) (SMILES N=C(N)NCCC[C@@H]1NC(=O)[C@@H]2CCCN2C(=O)[C@H]2CCCN2C(=O)[C@H](Cc2ccccc2)NC(=O)[C@H](CC(=O)O)NC(=O)[C@H](CC(N)=O)NC(=O)[C@H](Cc2ccccc2)NC(=O)[C@H](Cc2ccccc2)NC1=O) [c[Pro-Arg-Phe-Phe-Asn-Asp-Phe-DPro]] | 65% | – | < 5.5 | – | < 5.5 | – | > 100 µM | > 100 µM | -25% | – | – | – | – | –
3 | cyclo(PRFFNKF[dP]) (SMILES N=C(N)NCCC[C@@H]1NC(=O)[C@@H]2CCCN2C(=O)[C@H]2CCCN2C(=O)[C@H](Cc2ccccc2)NC(=O)[C@H](CCCCN)NC(=O)[C@H](CC(N)=O)NC(=O)[C@H](Cc2ccccc2)NC(=O)[C@H](Cc2ccccc2)NC1=O) [c[Pro-Arg-Phe-Phe-Asn-Lys-Phe-DPro]] | 60% | 45% | < 5.5 | – | 6.11 | – | – | > 100 µM | – | – | – | 45% | – | –
4 | cyclo(PRFFNAA[dP]) (SMILES C[C@@H]1NC(=O)[C@H](CC(N)=O)NC(=O)[C@H](Cc2ccccc2)NC(=O)[C@H](Cc2ccccc2)NC(=O)[C@H](CCCNC(=N)N)NC(=O)[C@@H]2CCCN2C(=O)[C@H]2CCCN2C(=O)[C@H](C)NC1=O) [c[Pro-Arg-Phe-Phe-Asn-Ala-Ala-DPro]] | – | – | 6.1 | – | 8.16 | – | > 100 µM | > 100 µM | -25% | – | – | – | > 100 µM | –
5 | cyclo(PRFFNGF[dP]) (SMILES N=C(N)NCCC[C@@H]1NC(=O)[C@@H]2CCCN2C(=O)[C@H]2CCCN2C(=O)[C@H](Cc2ccccc2)NC(=O)CNC(=O)[C@H](CC(N)=O)NC(=O)[C@H](Cc2ccccc2)NC(=O)[C@H](Cc2ccccc2)NC1=O) [c[Pro-Arg-Phe-Phe-Asn-Gly-Phe-DPro]] | – | – | < 5.5 | – | 6.1 | – | > 100 µM | > 100 µM | -35% | – | – | – | > 100 µM | –
6 | cyclo(PRFFNEF[dP]) (SMILES N=C(N)NCCC[C@@H]1NC(=O)[C@@H]2CCCN2C(=O)[C@H]2CCCN2C(=O)[C@H](Cc2ccccc2)NC(=O)[C@H](CCC(=O)O)NC(=O)[C@H](CC(N)=O)NC(=O)[C@H](Cc2ccccc2)NC(=O)[C@H](Cc2ccccc2)NC1=O) [c[Pro-Arg-Phe-Phe-Asn-Glu-Phe-DPro]] | 60% | – | < 5.5 | – | < 5.5 | > 100 µM | > 100 µM | > 100 µM | – | – | – | – | – | –
7 | cyclo(PRFFHAF[dP]) (SMILES C[C@@H]1NC(=O)[C@H](Cc2c[nH]cn2)NC(=O)[C@H](Cc2ccccc2)NC(=O)[C@H](Cc2ccccc2)NC(=O)[C@H](CCCNC(=N)N)NC(=O)[C@@H]2CCCN2C(=O)[C@H]2CCCN2C(=O)[C@H](Cc2ccccc2)NC1=O) [c[Pro-Arg-Phe-Phe-His-Ala-Phe-DPro]] | – | – | 6.46 | – | – | – | > 100 µM | – | – | 0.01 µM | -15% | – | > 100 µM | –
8 | cyclo(PRFFNHF[dP]) (SMILES N=C(N)NCCC[C@@H]1NC(=O)[C@@H]2CCCN2C(=O)[C@H]2CCCN2C(=O)[C@H](Cc2ccccc2)NC(=O)[C@H](Cc2c[nH]cn2)NC(=O)[C@H](CC(N)=O)NC(=O)[C@H](Cc2ccccc2)NC(=O)[C@H](Cc2ccccc2)NC1=O) [c[Pro-Arg-Phe-Phe-Asn-His-Phe-DPro]] | – | – | < 5.5 | – | 6.07 | > 100 µM | > 100 µM | > 100 µM | – | – | – | – | 2.6 µM | –

The next lines start with the values.

Row | % maximal NDP-MSH response at 100 µM (cAMP AlphaScreen) [1] | % maximal NDP-MSH response at 100 µM (cAMP AlphaScreen) [2] | antagonist pA2 (Schild, agonist NDP-MSH) [2] | % maximal NDP-MSH response at 100 µM (cAMP AlphaScreen) [3] | antagonist pA2 (Schild, agonist NDP-MSH) [3] | agonist EC50 (cAMP AlphaScreen) [4] | agonist EC50 (cAMP AlphaScreen) [2] | agonist EC50 (cAMP AlphaScreen) [3] | inverse agonist, % change from basal cAMP at 100 µM [4] | inverse agonist apparent potency [4] | inverse agonist, % decrease from basal cAMP [4] | % maximal NDP-MSH response at 100 µM (cAMP AlphaScreen) [4] | agonist EC50 (cAMP AlphaScreen) [1] | % receptor stimulation at 100 µM (cAMP AlphaScreen) [5] | Binder
9 | 80% | 40% | 5.7 | 50% | 6.81 | – | – | – | – | 0.15 µM | -20% | – | – | – | cyclo(PRFFWAF[dP]) (SMILES C[C@@H]1NC(=O)[C@H](Cc2c[nH]c3ccccc23)NC(=O)[C@H](Cc2ccccc2)NC(=O)[C@H](Cc2ccccc2)NC(=O)[C@H](CCCNC(=N)N)NC(=O)[C@@H]2CCCN2C(=O)[C@H]2CCCN2C(=O)[C@H](Cc2ccccc2)NC1=O) [c[Pro-Arg-Phe-Phe-Trp-Ala-Phe-DPro]]
10 | – | – | – | – | – | – | – | – | – | – | – | – | – | 35% | cyclo(PRF[hPhe]NAF[dP]) [c[Pro-Arg-Phe-hPhe-Asn-Ala-Phe-DPro]]
11 | – | – | < 5.5 | – | 6.63 | > 100 µM | > 100 µM | > 100 µM | – | – | – | – | > 100 µM | – | cyclo(PRFFFAF[dP]) (SMILES C[C@@H]1NC(=O)[C@H](Cc2ccccc2)NC(=O)[C@H](Cc2ccccc2)NC(=O)[C@H](Cc2ccccc2)NC(=O)[C@H](CCCNC(=N)N)NC(=O)[C@@H]2CCCN2C(=O)[C@H]2CCCN2C(=O)[C@H](Cc2ccccc2)NC1=O) [c[Pro-Arg-Phe-Phe-Phe-Ala-Phe-DPro]]
12 | 55% | – | < 5.5 | – | 5.9 | – | > 100 µM | > 100 µM | – | 0.51 µM | -25% | – | – | – | cyclo(PRFFVAF[dP]) [c[Pro-Arg-Phe-Phe-Val-Ala-Phe-DPro]]
13 | 70% | 35% | 5.72 | 35% | 5.71 | – | – | – | – | – | – | 25% | – | – | cyclo(PRFFNFF[dP]) (SMILES N=C(N)NCCC[C@@H]1NC(=O)[C@@H]2CCCN2C(=O)[C@H]2CCCN2C(=O)[C@H](Cc2ccccc2)NC(=O)[C@H](Cc2ccccc2)NC(=O)[C@H](CC(N)=O)NC(=O)[C@H](Cc2ccccc2)NC(=O)[C@H](Cc2ccccc2)NC1=O) [c[Pro-Arg-Phe-Phe-Asn-Phe-Phe-DPro]]
